Biological target: A/Perth/16/2009 H3 trimer (biotinylated, for BLI) (Influenza A virus A/Perth/16/2009 (H3N2), strain, biotin on the avi tag (BirA))
Test: BLI
Conditions: both partners purified

B1: 09–1B12 Fab (mature; Lys-C digest of recombinant IgG, used for BLI) (Fab, V domains shown)
VH: QVQLVQSAPEVKRPGASVRLSCKASGYTFNTYGIIWVRQAPGQGLEWMGWISAYTGNTNYAQKVQGRVTMTTDITTSTAYLELRGLRSDDTAVYYCARGLLQGAVILDSYHYALDFWGQGTTVTVSS
VL: EIVLTQSPGTLSLSPGERATLSCRASQSVTNRFIAWYQHKPGQSPRLLIYGASSRATGIPDRFSGRGSGTDFTLTISRLEPEDFAVYYCQQYDTSPRWTFGQGTKLEIK
- binding result: binds
